Assay results published in patent publication US11135246B2, “Peptides and combination of peptides for use in immunotherapy against leukemias and other cancers” (Immatics Biotechnologies GmbH, priority 2017, dated 2021).

target: HLA-B*44:02 (Homo sapiens, UniProt P01889, A223V/A65T/A93T/A95T/D201E/D98Y/E176V/E187L/E204Q/E69K/G107R/H137Y/K202T/L105A/L119I/N104T/N87E/Q56L/Q94N/R106L/R155S/R180D/S101N/S121R/S35A/S48T/T118I/V36M/W191S/Y140D/Y91S); assay: MHC binding assay, UV-ligand exchange with β2m ELISA, HLA-B*44:02; settings: binding to HLA-B*44:02, UV-ligand exchange
Source text: (§1) Candidate peptides for T cell based therapies according to the present invention were further tested for their MHC binding capacity (affinity). The individual peptide-MHC complexes were produced by UV-ligand exchange, where a UV-sensitive peptide is cleaved upon UV-irradiation, and exchanged with the peptide of interest as analyzed. Only peptide candidates that can effectively bind and stabilize the peptide-receptive MHC molecules prevent dissociation of the MHC complexes. To determine the yield of the exchange reaction, an ELISA was performed based on the detection of the light chain (β2m) of stabilized MHC complexes. The assay was performed as generally described in Rodenko et al. (Rodenko et al., 2006).
(§2) 96 well MAXISorp plates (NUNC) were coated over night with 2 ug/ml streptavidin in PBS at room temperature, washed 4× and blocked for 1 h at 37° C. in 2% BSA containing blocking buffer. Refolded HLA-A*02:01/MLA-001 monomers served as standards, covering the range of 15-500 ng/ml. Peptide-MHC monomers of the UV-exchange reaction were diluted 100-fold in blocking buffer. Samples were incubated for 1 h at 37° C., washed four times, incubated with 2 ug/ml HRP conjugated anti-β2m for 1 h at 37° C., washed again and detected with TMB solution that is stopped with […]. Absorption was measured at 450 nm. Candidate peptides that show a high exchange yield (preferably higher than 50%, most preferred higher than 75%) are generally preferred for a generation and production of antibodies or fragments thereof, and/or T cell receptors or fragments thereof, as they show sufficient avidity to the MHC molecules and prevent dissociation of the MHC complexes.

Row | Substance | Peptide exchange (MHC class I binding score, peptide exchange yield)
1 | 257 (KEFFFVKVF; listed as Homo sapiens) [compound 257] | “+++” (>50 = +++)
2 | 276 (EEEGNLLRSW; listed as Homo sapiens) [compound 276] | “+++” (>50 = +++)
3 | 183 (GESQDSTTAL; listed as Homo sapiens) [compound 183] | “++” (>20% = ++)
4 | 262 (QENQAETHAW; listed as Homo sapiens) [compound 262] | “+++” (>50 = +++)
5 | 135 (NEIKVYITF; listed as Homo sapiens) [compound 135] | “+++” (>50 = +++)
6 | 164 (SEYSHLTRV; listed as Homo sapiens) [compound 164] | “++” (>20% = ++)
7 | 180 (EEPAFNVSY; listed as Homo sapiens) [compound 180] | “++” (>20% = ++)
8 | 163 (EEWMGLLEY; listed as Homo sapiens) [compound 163] | “++++” (>75% = ++++)
9 | 159 (GELLGRQSF; listed as Homo sapiens) [compound 159] | “+++” (>50 = +++)
10 | 265 (QEVDASIFKAW; listed as Homo sapiens) [compound 265] | “+++” (>50 = +++)
11 | 168 (QEIQSLLTNW; listed as Homo sapiens) [compound 168] | “+++” (>50 = +++)
12 | 157 (VEIAEAIQL; listed as Homo sapiens) [compound 157] | “+++” (>50 = +++)
13 | 149 (SEKETVAYF; listed as Homo sapiens) [compound 149] | “+++” (>50 = +++)
14 | 146 (SESKTVVTY; listed as Homo sapiens) [compound 146] | “+++” (>50 = +++)
15 | 136 (AEYKGRVTL; listed as Homo sapiens) [compound 136] | “++++” (>75% = ++++)
16 | 152 (AELLAKELY; listed as Homo sapiens) [compound 152] | “++” (>20% = ++)
17 | 184 (RMPPFTQAF; listed as Homo sapiens) [compound 184] | “++” (>20% = ++)
18 | 269 (KELEDLNKW; listed as Homo sapiens) [compound 269] | “+++” (>50 = +++)
19 | 139 (RENQVLGSGW; listed as Homo sapiens) [compound 139] | “+++” (>50 = +++)
20 | 123 (EENPGKFLF; listed as Homo sapiens) [compound 123] | “+++” (>50 = +++)
21 | 273 (AEIEIVKEEF; listed as Homo sapiens) [compound 273] | “++” (>20% = ++)
22 | 264 (SEDHSGSYW; listed as Homo sapiens) [compound 264] | “+++” (>50 = +++)
23 | 274 (GEAVTDHPDRLW; listed as Homo sapiens) [compound 274] | “+++” (>50 = +++)
24 | 277 (EEGNLLRSW; listed as Homo sapiens) [compound 277] | “+++” (>50 = +++)
25 | 156 (FEVESLFQKY; listed as Homo sapiens) [compound 156] | “+++” (>50 = +++)
26 | 165 (VELDLQRSV; listed as Homo sapiens) [compound 165] | “++” (>20% = ++)

target: HLA-B*07:02 (Homo sapiens, UniProt P01889); assay: MHC binding assay, UV-ligand exchange with β2m ELISA, HLA-B*07:02; settings: binding to HLA-B*07:02, UV-ligand exchange
Source text: as §1, §2

Row | Substance | Peptide exchange (MHC class I binding score, peptide exchange yield)
27 | 106 (KAFKWFSAL; listed as Homo sapiens) [compound 106] | “++” (>20% = ++)
28 | 95 (KPKAAKPKTA; listed as Homo sapiens) [compound 95] | “++” (>20% = ++)
29 | 250 (VPNLQTVSV; listed as Homo sapiens) [compound 250] | “++” (>20% = ++)
30 | 100 (YPYQERVFL; listed as Homo sapiens) [compound 100] | “++” (>20% = ++)
31 | 241 (APAPAEKTPV; listed as Homo sapiens) [compound 241] | “+++” (>50 = +++)
32 | 98 (YPIALTRAEM; listed as Homo sapiens) [compound 98] | “+++” (>50 = +++)
33 | 243 (LPKVQSIQL; listed as Homo sapiens) [compound 243] | “++” (>20% = ++)
34 | 85 (IPVSHPVL; listed as Homo sapiens) [compound 85] | “++” (>20% = ++)
35 | 231 (MPLSTIREV; listed as Homo sapiens) [compound 231] | “++” (>20% = ++)
36 | 96 (KPKKAPKSPA; listed as Homo sapiens) [compound 96] | “+++” (>50 = +++)
37 | 253 (RPFADLLGTAF; listed as Homo sapiens) [compound 253] | “+++” (>50 = +++)
38 | 104 (RPMTPTQIGPSL; listed as Homo sapiens) [compound 104] | “+++” (>50 = +++)
39 | 87 (FPAPILRAV; listed as Homo sapiens) [compound 87] | “+++” (>50 = +++)
40 | 225 (LPARFYQAL; listed as Homo sapiens) [compound 225] | “++++” (>75% = ++++)
41 | 240 (SPSLPNITL; listed as Homo sapiens) [compound 240] | “+++” (>50 = +++)
42 | 99 (SPRAINNLVL; listed as Homo sapiens) [compound 99] | “++++” (>75% = ++++)
43 | 102 (LPLSMEAKI; listed as Homo sapiens) [compound 102] | “++” (>20% = ++)

Row | Substance | Peptide exchange (MHC class I binding score, peptide exchange yield)
44 | 80 (KPLFKVSTF; listed as Homo sapiens) [compound 80] | “++” (>20% = ++)
45 | 82 (APFGFLGMQSL; listed as Homo sapiens) [compound 82] | “+++” (>50 = +++)
46 | 232 (APRPAGSYL; listed as Homo sapiens) [compound 232] | “+++” (>50 = +++)
47 | 97 (LPFGKIPIL; listed as Homo sapiens) [compound 97] | “++” (>20% = ++)
48 | 244 (MPSSDTTVTF; listed as Homo sapiens) [compound 244] | “+++” (>50 = +++)
49 | 228 (SPRITFPSL; listed as Homo sapiens) [compound 228] | “++++” (>75% = ++++)
50 | 246 (YPGWHSTTI; listed as Homo sapiens) [compound 246] | “++” (>20% = ++)
51 | 79 (SPVPSHWMVA; listed as Homo sapiens) [compound 79] | “+++” (>50 = +++)
52 | 92 (KAKKPAGAA; listed as Homo sapiens) [compound 92] | “++” (>20% = ++)
53 | 247 (QPSPARAPAEL; listed as Homo sapiens) [compound 247] | “++” (>20% = ++)
54 | 86 (IPASHPVL; listed as Homo sapiens) [compound 86] | “++” (>20% = ++)
55 | 252 (RPHIPISKL; listed as Homo sapiens) [compound 252] | “++” (>20% = ++)
56 | 251 (QPRLFTMDL; listed as Homo sapiens) [compound 251] | “+++” (>50 = +++)
57 | 77 (RPNGNSLFTSA; listed as Homo sapiens) [compound 77] | “+++” (>50 = +++)
58 | 89 (FPETVNNLL; listed as Homo sapiens) [compound 89] | “++” (>20% = ++)
59 | 227 (APINKAGSFL; listed as Homo sapiens) [compound 227] | “++++” (>75% = ++++)
60 | 78 (RPRGLALVL; listed as Homo sapiens) [compound 78] | “+++” (>50 = +++)
